Data taken from patent publication US6969760B2, “Jak kinases and regulation of cytokine signal transduction” (St. Jude Children's Research Hospital, priority 1993, dated 2005).

Assays:
[1] = test system: wild-type 2C4 and γ-1/Jak2 transfectants; assay: IFN-γ response (cell surface markers, IFN-inducible mRNAs) of wild-type 2C4 and γ-1/Jak2 transfectants; format: cell-based, human
Procedure: Cell surface expression of transfected CD2 and endogenous Class I and II HLAs in response to IFNs-α or -γ on wild-type 2C4, mutant γ-1 cells and mutant γ-1 cells stably transfected with a murine Jak2 cDNA expression construct. Data was generated for an enriched population and a clone of γ-1/Jak2 transfectants using FACSCAN (BECTON DICKINSON) analyses (3000 data points, Consort 30). Cells were plated at 5×10^5/10 cm dish and treated the following day with 10^3 IU/ml of a highly purified mixture of α-IFNs (WELLFERON 1.5×10^8 IU/mg protein, kindly supplied by WELLCOME […]. LABORATORIES, Beckenham, UK) or recombinant human IFN-γ (4×10^7 IU/mg protein, obtained from Dr. Gunter Adolf, Ernst Boehringer Institut fur Arzneimittelforschung, Vienna, Austria, and commercially or readily available). […]
IFN-inducible gene expression in wild type 2C4, mutant γ-1 and mutant γ-1/Jak2 transfected cells: mRNA expression in response to IFNs-α or -γ was monitored by RNase protection using probes to detect the IFN-inducible mRNAs of: the 9-27, 6-16, 2-5A synthetase and ISGF3γ genes and the p91 and p84 alternatively spliced products of the p91/84 ISGF3α gene and the IRF1 and GBP genes. […]

EMC virus = assay: Antiviral assay versus EMC virus; format: cell-based; settings: per 1 fmole of 125I-IFN-γ
Procedure: Binding of ^125I-labeled IFN-γ to 2C4 and mutant γ-1 cells: ^125I-IFN-γ (667 Ci/mMole, Amersham International, UK) treatment was of triplicate samples of 10^6 cells for 90 min at 0° C. Non-specific binding was subtracted. It was determined in parallel in the presence of a 200 fold excess of unlabeled IFN-γ and represented approximately 40% of the total radioactivity bound. In a parallel antiviral assay versus EMC virus 1 fmole of ^125I-IFN-γ was equivalent to 0.15 IU. Specific binding at the highest IFN-γ concentration here corresponded to about 6000 receptors per cell.

Jak3 and Jak1 = assay: IL-2/IL-4-induced tyrosine phosphorylation of Jaks in CTLL cells; format: cell-based, murine
Procedure: IL-2 and IL-4 stimulation of Jak1 and Jak3 tyrosine phosphorylation and activation of Jak3 in vitro kinase activity. FIG. 9A: CTLL cells were deprived of growth factors for 14 hr and were either left unstimulated (lanes 1, 4, 7 and 10), were stimulated with 100 U/ml with IL-2 (Cetus) for 10 min (lanes 2,5,8 and 11) or were stimulated with 100 ng/ml of IL-4 (R&D) for 10 min (lanes 3, 6, 9 and 12). Extracts were prepared as previously described (Witthuhn et al., Cell: 227-236 (1993)) and used for immunoprecipitation with the indicated antisera. The immunoprecipitates were resolved by SDS-PAGE, electrophoretically transferred to nitrocellulose and the membranes were probed with the 4G10 monoclonal antibody (UBI) against phosphotyrosine. FIG. 9B: CTLL cells were deprived of growth factors for 14 hr and were either unstimulated (lane 1), stimulated with IL-2 (lane 2) or stimulated with IL-4 (lane 3) as above. Extracts were prepared and used for immunoprecipitation with the Jak3/Jak1 cross-reactive antipeptide antiserum against Tyk2. The immunoprecipitates were used in in vitro kinase assays as previously described (Witthuhn et al., Cell: 227-236 (1993)) and the products resolved by SDS-PAGE and visualized by autoradiography. […]

B1: IFN-γ: recombinant human IFN-γ (4×10^7 IU/mg protein) (protein)
chain: QDPYVKEAENLKKYFNAGHSDVADNGTLFLGILKNWKEESDRKIMQSQIVSFYFKLFKNFKDDQSIQKSVETIKEDMNVKFFNSNKKKRDDFEKLTNYSVTDLNVQRKAIHELIQVMAELSPAAKTGKRKRSQMLFRGRRASQ
With B1 the “IFN-γ concentration giving an approaching maximal response” value [1] was 100 IU/ml and the “IFN-γ concentration giving a clear response” value ([1]; dose response curves essentially identical) was 10 IU/ml.

B2: ^125I-IFN-γ: 125I-labeled IFN-γ (667 Ci/mMole, Amersham) (protein)
chain: B1 chain
In the case of B2, the “antiviral activity equivalent of 1 fmole” value (EMC virus) is reported as 0.15 IU.

B3: IL-4: IL-4 (R&D), cytokine (protein, UniProt P05112 25-153, looked up)
Interleukin-4: HKCDITLQEIIKTLNSLTEQKTLCTELTVTDIFAASKNTTEKETFCRAATVLRQFYSHHEKDTRCLGATAQQFHRHKQLIRFLKRLDRNLWGLAGLNSCPVKEANQSTLENFLERLKTIMREKYSKCSS
B3 was tested, and the “onset of phosphorylation of the Jaks following stimulation” value (Jak3 and Jak1) was “detectable within one minute”.
